Values joined by “and” are separate entries in the source; they are usually repeats but may differ in a detail not shown here. Equal entries are not always repeated.
Key:
[1] = molecular target: LbCas12a-Trex2 fusion (C-terminal Trex2; construct 25962) (Simian virus 40; Lachnospiraceae bacterium ND2006; Mus musculus); test: cell-based or functional assay
[2] = molecular target: LbCas12a-scTrex2 fusion (single-chained Trex2 homodimer at the C-terminus; construct 27433) (Simian virus 40; Lachnospiraceae bacterium ND2006; Mus musculus); test: cell-based or functional assay

Substance | 1 kb Inversion (targeted fragment inversion in transgenic maize plants) [1] | 1 kb Inversion (targeted fragment inversion in transgenic maize plants) [2] | targeted inversion frequency among the 13 plants in which both targets were edited [2] [%]
LbCas12a-Trex2 fusion (C-terminal Trex2; construct 25962) (enzyme) | 28 plants and 18.4% | – | –
LbCas12a-scTrex2 fusion (single-chained Trex2 homodimer at the C-terminus; construct 27433) (enzyme) | – | 1 plants and 2% | 7.7

From patent publication US20250382598A1
